Bridges are numbered along the chain shown (N, C = ends).
Legend:
[1] = Circular dichroism (CD) spectroscopy of linear and stapled peptides in water or 40% TFE/water (Example 3); format: physicochemical; settings: for [0]208 mean residue ellipticity: λ = 208 nm; for [0]222 mean residue ellipticity: λ = 222 nm
In short: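 Spectra 180–260 nm at 20 °C, 0.5 mM N-acetylated, C-amidated peptides in 0.1M phosphate buffer (water) or 40% TFE/water, 1 mm path, five scans averaged, buffer baseline subtracted. Mean residue ellipticity reported at 222 and 208 nm with the 222/208 ratio as helicity index.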

[2] = test system: RHAMM-overexpressing (LR21) cells; experiment: Cell migration assay (Boyden chamber, Chemicon ECM510); format: cell-based; settings: for inhibition of cell migration (in words): 10 ng/mL peptide, 20 hours, compared to 30% serum control; for Migration (% inhib.): % inhibition relative to positive control
In short: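 Serum-starved LR21 cells (7.5×10^4) placed in the upper Boyden chamber with or without 10 ng/mL peptide, with 30% FBS in DMEM as lower-chamber chemoattractant. Cells crossing the membrane after 20 h quantified by CyQUANT GR fluorescence (480/520 nm); mean of n=3, compared with 30% serum control.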

NF-κB = experiment: Inflammation assay: NF-κB inducible SEAP reporter in RAW-Blue macrophages stimulated with PAM3CSK4; format: cell-based, murine; settings: % inhibition relative to positive control
Protocol: Compounds 132, 133, 135, 150, 152, 157-161, 265-269, 275, 277, and 278 were evaluated for their ability to inhibit inflammation. To determine the effect of the peptides on inflammation, commercially available murine RAW 264.7 macrophages carrying a secreted embryonic alkaline phosphatase (SEAP) reporter that is inducible by NF-κB (RAW-Blue; InvivoGen, San Diego, Calif., USA) were used. Cells were grown to 80% confluence in DMEM containing 4.5 g/L glucose, 10% heat-inactivated fetal bovine serum, 2 mM L-glutamine, 50 μg/mL penicillin/streptomycin, 100 μg/mL Normocin (InvivoGen) at 37° C. in 5% CO2. For peptide screening experiments, cells were scraped in growth medium, counted, and plated to flat-bottom 96-well plates at a density of 5×10^4 cells/well either in the presence or absence (control) of 200 ng/mL TLR1/TLR2 agonist PAM3CSK4 (InvivoGen). Peptides were added in 6 replicate wells at a dose of 10 ng/mL in the presence of PAM3CSK4. After 18 hours of stimulation, SEAP concentrations (indicating NF-κB activity) were measured in the supernatants collected from the RAW-Blue cells using QUANTI-BLUE reagent (InvivoGen). After 20 minutes of incubation at 37° C., SEAP levels were determined using spectrophotometry at a wavelength of 630 nm.
Values are the mean and SDM of n=3 replicates. *p<0.05 and ***p<0.001 compared to +PAM3. In FIGS. 44 and 45, where bars are labeled with two compound numbers (“133/150” and “135/152”) this means that the data were pooled for the indicated compounds, i.e., for the non-acetylated and acetylated versions of the indicated peptides.

[3] = test system: IMR90 human fetal lung fibroblasts; experiment: Fibrosis assay: active TGF-β levels in TGF-β treated fibroblasts (ELISA); format: cell-based; settings: for Fibrosis (% inhib.): % inhibition relative to positive control
Protocol: Compounds 132, 133, 135, 150, 152, 157-161, 265-269, 275, 277, and 278 were evaluated for their ability to inhibit fibrosis. IMR90 human fetal lung fibroblasts were obtained from ATCC and maintained in DMEM supplemented with 10% fetal bovine serum. In order to examine the effect of peptides on myofibroblast differentiation, 80% confluent cultures were serum starved overnight prior to addition of TGF-β (2 ng/mL, R&D Systems). Cells were treated with TGF-β for 24 hours prior to addition of peptides (10 ng/mL). 48 hours after addition of peptides, culture supernatants were collected and levels of active TGF-β measured using commercially available TGF-β ELISA (Quantikine, R&D Systems).
Values are the Mean and SDM n=3 replicates. *p<0.05, **p<0.01, ***p<0.001 when compared to the +TGFβ1 control. In FIG. 47, where bars are labeled with two compound numbers (“133/150” and “135/152”) this means that the data were pooled for the indicated compounds, i.e., for the non-acetylated and acetylated versions of the indicated peptides.

[4] = [θ]222/[θ]208 ratio in water, summary tables 15, 17, 19
[5] = as repeated in tables 16, 18, 20

| Substance | [θ]222/[θ]208 ratio of ellipticities [1, 4] | [θ]222/[θ]208 ratio of ellipticities [1, 5] | [0]222/[0]208 ratio of ellipticities ([1]; in 40% TFE/water) | [0]222/[0]208 ratio of ellipticities ([1]; in water) | alpha-helical character by CD (in words) ([1]; in water) | [0]208 mean residue ellipticity ([1]; in 40% TFE/water) | [0]208 mean residue ellipticity ([1]; in water) | [0]222 mean residue ellipticity ([1]; in 40% TFE/water) | [0]222 mean residue ellipticity ([1]; in water) | inhibition of cell migration (in words) [2] | Migration (% inhib.) [2] | Inflammation (% Inhib.) (NF-κB) | Fibrosis (% inhib.) [3] | [0]208 mean residue ellipticity at λ=208 nm ([1]; 40% TFE/water) | [0]222/[0]208 ratio of ellipticities ([1]; 40% TFE/water) | [0]222 mean residue ellipticity at λ=222 nm ([1]; 40% TFE/water) | [0]208 mean residue ellipticity at λ=208 nm ([1]; water) | [0]222/[0]208 ratio of ellipticities ([1]; water) | [0]222 mean residue ellipticity at λ=222 nm ([1]; water) | inhibition of fibrosis (active TGF-β, in words) ([3]; 10 ng/mL peptide, 48 hours, compared to +TGFβ1 control) |
| --- | --- | --- | --- | --- | --- | --- | --- | --- | --- | --- | --- | --- | --- | --- | --- | --- | --- | --- | --- | --- |
| Ac-(cyclo-4,8)-VSK[ERSQK]VKRKQN-NH2 (Ac-VSKERSQKVKRKQN-NH2; lactam 4-8; SMILES CC(=O)N[C@H](C(=O)N[C@@H](CO)C(=O)N[C@@H](CCCCN)C(=O)N[C@H]1CCC(=O)NCCCC[C@@H](C(=O)N[C@H](C(=O)N[C@@H](CCCCN)C(=O)N[C@@H](CCCNC(=N)N)C(=O)N[C@@H](CCCCN)C(=O)N[C@@H](CCC(N)=O)C(=O)N[C@@H](CC(N)=O)C(N)=O)C(C)C)NC(=O)[C@H](CCC(N)=O)NC(=O)[C@H](CO)NC(=O)[C@H](CCCNC(=N)N)NC1=O)C(C)C) [Compound 150] | 0.53 | 0.53 | 0.81 | 0.53 | decreased helicity | -1.21E+04 deg cm^2 dmol^−1 | -6.30E+03 deg cm^2 dmol^−1 | -9.75E+03 deg cm^2 dmol^−1 | -3.35E+03 deg cm^2 dmol^−1 | significantly inhibit cell migration | 0 % inhib. | 0 % Inhib. | 31 % inhib. | – | – | – | – | – | – | – |
| Ac-(cyclo-5,9)-NLKQ[EIKHK]VKLKDE-NH2 (Ac-NLKQEIKHKVKLKDE-NH2; lactam 5-9; SMILES CC[C@H](C)[C@@H]1NC(=O)[C@@H](NC(=O)[C@H](CCC(N)=O)NC(=O)[C@H](CCCCN)NC(=O)[C@H](CC(C)C)NC(=O)[C@H](CC(N)=O)NC(C)=O)CCC(=O)NCCCC[C@@H](C(=O)N[C@H](C(=O)N[C@@H](CCCCN)C(=O)N[C@@H](CC(C)C)C(=O)N[C@@H](CCCCN)C(=O)N[C@@H](CC(=O)O)C(=O)N[C@@H](CCC(=O)O)C(N)=O)C(C)C)NC(=O)[C@H](Cc2c[nH]cn2)NC(=O)[C@H](CCCCN)NC1=O) [Compound 158] | 0.43 | 0.43 | 0.84 | 0.43 | – | -1.70E+04 deg cm^2 dmol^−1 | -6.60E+03 deg cm^2 dmol^−1 | -1.24E+04 deg cm^2 dmol^−1 | -2.83E+03 deg cm^2 dmol^−1 | significantly inhibit cell migration | 43 % inhib. | 0 % Inhib. | 31 % inhib. | – | – | – | – | – | – | – |
| Ac-(cyclo-6,10)-NLKQK[EKHVK]KLKDE-NH2 (Ac-NLKQKEKHVKKLKDE-NH2; lactam 6-10; SMILES CC(=O)N[C@@H](CC(N)=O)C(=O)N[C@@H](CC(C)C)C(=O)N[C@@H](CCCCN)C(=O)N[C@@H](CCC(N)=O)C(=O)N[C@@H](CCCCN)C(=O)N[C@H]1CCC(=O)NCCCC[C@@H](C(=O)N[C@@H](CCCCN)C(=O)N[C@@H](CC(C)C)C(=O)N[C@@H](CCCCN)C(=O)N[C@@H](CC(=O)O)C(=O)N[C@@H](CCC(=O)O)C(N)=O)NC(=O)[C@H](C(C)C)NC(=O)[C@H](Cc2c[nH]cn2)NC(=O)[C@H](CCCCN)NC1=O) [Compound 159] | 0.44 | 0.44 | 0.85 | 0.44 | – | – | -5.95E+03 deg cm^2 dmol^−1 | -1.26E+04 deg cm^2 dmol^−1 | -2.61E+03 deg cm^2 dmol^−1 | – | 0 % inhib. | 0 % Inhib. | 50 % inhib. | – | – | – | – | – | – | – |
| Ac-(cyclo-7,11)-NLKQKI[EHVVK]LKDE-NH2 (Ac-NLKQKIEHVVKLKDE-NH2; lactam 7-11; SMILES CC[C@H](C)[C@H](NC(=O)[C@H](CCCCN)NC(=O)[C@H](CCC(N)=O)NC(=O)[C@H](CCCCN)NC(=O)[C@H](CC(C)C)NC(=O)[C@H](CC(N)=O)NC(C)=O)C(=O)N[C@H]1CCC(=O)NCCCC[C@@H](C(=O)N[C@@H](CC(C)C)C(=O)N[C@@H](CCCCN)C(=O)N[C@@H](CC(=O)O)C(=O)N[C@@H](CCC(=O)O)C(N)=O)NC(=O)[C@H](C(C)C)NC(=O)[C@H](C(C)C)NC(=O)[C@H](Cc2c[nH]cn2)NC1=O) [Compound 160] | 0.55 | 0.55 | 0.86 | 0.55 | – | -1.65E+04 deg cm^2 dmol^−1 | -6.98E+03 deg cm^2 dmol^−1 | -1.42E+04 deg cm^2 dmol^−1 | -3.85E+03 deg cm^2 dmol^−1 | – | 0 % inhib. | 0 % Inhib. | 0 % inhib. | – | – | – | – | – | – | – |
| Ac-(cyclo-7-11, cyclo-28-32)-NLKQKI[EHVVK]LKDENSQLKSEVSKLR[EQLVK]RKQN-NH2 (Ac-NLKQKIEHVVKLKDENSQLKSEVSKLREQLVKRKQN-NH2; lactam 7-11, 28-32; SMILES CC[C@H](C)[C@H](NC(=O)[C@H](CCCCN)NC(=O)[C@H](CCC(N)=O)NC(=O)[C@H](CCCCN)NC(=O)[C@H](CC(C)C)NC(=O)[C@H](CC(N)=O)NC(C)=O)C(=O)N[C@H]1CCC(=O)NCCCC[C@@H](C(=O)N[C@@H](CC(C)C)C(=O)N[C@@H](CCCCN)C(=O)N[C@@H](CC(=O)O)C(=O)N[C@@H](CCC(=O)O)C(=O)N[C@@H](CC(N)=O)C(=O)N[C@@H](CO)C(=O)N[C@@H](CCC(N)=O)C(=O)N[C@@H](CC(C)C)C(=O)N[C@@H](CCCCN)C(=O)N[C@@H](CO)C(=O)N[C@@H](CCC(=O)O)C(=O)N[C@H](C(=O)N[C@@H](CO)C(=O)N[C@@H](CCCCN)C(=O)N[C@@H](CC(C)C)C(=O)N[C@@H](CCCNC(=N)N)C(=O)N[C@H]2CCC(=O)NCCCC[C@@H](C(=O)N[C@@H](CCCNC(=N)N)C(=O)N[C@@H](CCCCN)C(=O)N[C@@H](CCC(N)=O)C(=O)N[C@@H](CC(N)=O)C(N)=O)NC(=O)[C@H](C(C)C)NC(=O)[C@H](CC(C)C)NC(=O)[C@H](CCC(N)=O)NC2=O)C(C)C)NC(=O)[C@H](C(C)C)NC(=O)[C@H](C(C)C)NC(=O)[C@H](Cc2c[nH]cn2)NC1=O) [Compound 278] | 0.74 | 0.74 | – | 0.74 | greatest alpha-helical character | – | – | – | – | significantly inhibit cell migration | 45 % inhib. | 0 % Inhib. | 0 % inhib. | -2.44E04 deg cm^2 dmol^−1 | 0.86 | -2.12E04 deg cm^2 dmol^−1 | -1.33E+04 deg cm^2 dmol^−1 | 0.74 | -9.95E+03 deg cm^2 dmol^−1 | strong trend towards inhibition of fibrosis |

— US10562935B2, “Stapled peptides and uses thereof” (London Health Sciences Centre Research Inc., priority 2015, dated 2020)
